Legend:
YTHDF3 YTH domain = target: T1, YTHDF3 YTH domain (UniProt Q7Z739 391-585); details: protein: recombinant
T1 sequence: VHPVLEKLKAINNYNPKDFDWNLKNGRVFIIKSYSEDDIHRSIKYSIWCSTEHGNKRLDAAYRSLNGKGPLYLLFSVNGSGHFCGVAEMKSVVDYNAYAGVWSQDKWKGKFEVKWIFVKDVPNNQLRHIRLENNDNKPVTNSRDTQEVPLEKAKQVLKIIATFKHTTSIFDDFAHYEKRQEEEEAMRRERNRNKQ

YTHDF1 YTH domain = target: T2, YTHDF1 YTH domain (UniProt Q9BYJ9 375-552); details: protein: recombinant
T2 sequence: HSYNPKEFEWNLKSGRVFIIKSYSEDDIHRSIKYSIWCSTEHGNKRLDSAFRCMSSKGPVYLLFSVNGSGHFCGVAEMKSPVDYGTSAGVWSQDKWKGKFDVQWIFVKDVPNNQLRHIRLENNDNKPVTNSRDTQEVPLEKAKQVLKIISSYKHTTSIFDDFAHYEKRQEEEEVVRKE

YTHDC2 YTH domain = target: T3, YTHDC2 YTH domain (UniProt Q9H6S0 1285-1424); details: protein: recombinant
T3 sequence: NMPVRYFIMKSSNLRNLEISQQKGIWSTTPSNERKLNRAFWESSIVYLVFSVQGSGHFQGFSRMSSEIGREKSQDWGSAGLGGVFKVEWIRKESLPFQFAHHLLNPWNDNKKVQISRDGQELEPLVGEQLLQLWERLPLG

YTHDC1 YTH domain = YTHDC1 YTH domain (UniProt Q96MU7 345-509); experiment: EMSA; 20 nM RNA; FP: 20 mM HEPES/KOH pH 7.5, 50 mM NaCl, 0.005% Tween 20, 1 mM GSH (DTT), 4 C; EMSA: 20 mM HEPES pH 8.2, 50 mM NaCl, 0.05% Triton X-100, 5% glycerol, 4 C, 0.5x T
YTHDF2 YTH domain = target: T4, YTHDF2 YTH domain (UniProt Q9Y5A9 383-553); details: protein: recombinant; tags: N-terminal His6 and GST; label: none
T4 sequence: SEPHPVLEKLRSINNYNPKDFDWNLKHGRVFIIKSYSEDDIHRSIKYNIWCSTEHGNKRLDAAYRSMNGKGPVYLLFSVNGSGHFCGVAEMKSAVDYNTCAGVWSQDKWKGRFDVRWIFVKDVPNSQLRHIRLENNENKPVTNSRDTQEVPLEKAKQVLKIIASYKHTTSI

## UUCUUCUGUGGACUGUG (ssRNA, m6A at position 12) [FAM-17mer m6A RNA probe]
YTHDF3 YTH domain
  binding result: binds
YTHDF1 YTH domain
  binding result: binds
YTHDC2 YTH domain
  binding result: binds
YTHDC1 YTH domain
  binding result: binds

## UUCUUCUGUGGACUGUG (ssRNA, m6A at position 12) [unlabeled m6A RNA probe]
YTHDF2 YTH domain
  IC50: 115 nM
